Drawing on article doi:10.1101/2025.05.13.653815, “Roles of the MO25 protein Pmo25 in contractile-ring stability and localization of the NDR kinase Sid2 during cytokinesis” (bioRxiv, 2025), this text covers Kd for one molecule.

A word on the Kd: it is the equilibrium constant for the complex coming apart.

The target in experiment [1] is T1, MBP-Ync13-(591-1130)-6His (S. pombe, UniProt O13683 591-1130).
T1 construct: The cloning of this truncation is not described; not shown: MBP, N-terminal, kept; His6, C-terminal, kept
T1 sequence (looked up): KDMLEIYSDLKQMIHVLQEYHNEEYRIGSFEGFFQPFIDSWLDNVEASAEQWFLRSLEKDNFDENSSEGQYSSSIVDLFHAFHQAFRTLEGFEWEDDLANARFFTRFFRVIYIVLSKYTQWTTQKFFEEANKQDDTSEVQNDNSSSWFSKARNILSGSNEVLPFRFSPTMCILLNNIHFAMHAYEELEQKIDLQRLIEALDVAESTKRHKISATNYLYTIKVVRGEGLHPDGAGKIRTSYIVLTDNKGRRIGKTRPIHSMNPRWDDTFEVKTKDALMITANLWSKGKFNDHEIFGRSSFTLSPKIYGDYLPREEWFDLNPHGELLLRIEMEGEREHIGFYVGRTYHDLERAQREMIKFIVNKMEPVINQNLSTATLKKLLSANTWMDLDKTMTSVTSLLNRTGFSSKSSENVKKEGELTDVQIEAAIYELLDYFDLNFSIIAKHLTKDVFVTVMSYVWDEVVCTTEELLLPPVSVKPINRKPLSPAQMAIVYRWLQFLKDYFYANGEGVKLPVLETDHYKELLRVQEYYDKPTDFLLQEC
Put plainly: pull-down; Kd by supernatant depletion: various concentrations of MBP-Ync13 on amylose beads with a fixed low concentration of Pmo25-(19-329)-6His, 1 h at 4°C; supernatant on SDS-PAGE, Coomassie Blue; one site binding equation. The conditions noted are these: both partners purified.

Experiment [2] has as its target T2, MBP-Ync13-full length-6His (S. pombe, UniProt O13683 1-1237).
T2 construct: pET21a-MBP: MBP-TEV-GGSGGS stands before Ync13, 6xHis after it; not shown: MBP, N-terminal, kept; His6, C-terminal, kept
T2 sequence (looked up): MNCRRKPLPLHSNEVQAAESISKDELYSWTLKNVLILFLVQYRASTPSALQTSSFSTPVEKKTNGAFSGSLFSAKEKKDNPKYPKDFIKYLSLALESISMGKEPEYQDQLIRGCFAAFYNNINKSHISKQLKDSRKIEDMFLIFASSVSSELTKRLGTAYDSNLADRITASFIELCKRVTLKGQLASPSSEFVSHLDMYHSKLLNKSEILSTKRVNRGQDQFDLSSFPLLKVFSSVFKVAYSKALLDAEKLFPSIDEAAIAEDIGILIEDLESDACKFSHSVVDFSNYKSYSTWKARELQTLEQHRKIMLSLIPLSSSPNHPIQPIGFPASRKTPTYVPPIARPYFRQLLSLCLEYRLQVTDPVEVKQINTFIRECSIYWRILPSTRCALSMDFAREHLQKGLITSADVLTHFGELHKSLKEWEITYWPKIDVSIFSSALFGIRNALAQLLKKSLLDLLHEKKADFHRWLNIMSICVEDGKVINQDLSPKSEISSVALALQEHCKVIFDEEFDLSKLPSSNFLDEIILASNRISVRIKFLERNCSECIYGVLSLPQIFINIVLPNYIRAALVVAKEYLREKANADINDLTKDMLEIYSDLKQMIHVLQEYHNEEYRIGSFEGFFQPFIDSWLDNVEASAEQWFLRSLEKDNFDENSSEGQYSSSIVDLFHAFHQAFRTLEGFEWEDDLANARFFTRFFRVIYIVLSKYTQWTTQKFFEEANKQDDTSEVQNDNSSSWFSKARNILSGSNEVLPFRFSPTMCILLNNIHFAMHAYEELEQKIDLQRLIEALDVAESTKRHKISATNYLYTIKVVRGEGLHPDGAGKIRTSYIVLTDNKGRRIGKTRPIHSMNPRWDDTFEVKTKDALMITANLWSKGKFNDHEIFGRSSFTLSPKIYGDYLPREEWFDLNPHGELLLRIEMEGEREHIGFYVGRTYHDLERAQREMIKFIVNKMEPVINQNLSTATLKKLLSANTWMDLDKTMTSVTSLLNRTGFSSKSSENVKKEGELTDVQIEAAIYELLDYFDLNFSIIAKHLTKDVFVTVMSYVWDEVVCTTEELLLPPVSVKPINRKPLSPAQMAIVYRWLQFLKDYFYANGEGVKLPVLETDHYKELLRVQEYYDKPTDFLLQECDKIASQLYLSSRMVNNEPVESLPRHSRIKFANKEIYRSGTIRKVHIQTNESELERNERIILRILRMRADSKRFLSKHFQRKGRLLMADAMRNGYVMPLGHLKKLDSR
Described as above. Conditions: both partners purified.

B1: Pmo25-(19-329)-6His (domain or fragment, S. pombe, UniProt Q9P7Q8 19-329, looked up)
chain: LCDNLPKLEINNDKKKSFEEVSKCLQNLRVSLCGTAEVEPDADLVSDLSFQIYQSNLPFLLVRYLPKLEFESKKDTGLIFSALLRRHVASRYPTVDYMLAHPQIFPVLVSYYRYQEVAFTAGSILRECSRHEALNEVLLNSRDFWTFFSLIQASSFDMASDAFSTFKSILLNHKSQVAEFISYHFDEFFKQYTVLLKSENYVTKRQSLKLLGEILLNRANRSVMTRYISSAENLKLMMILLRDKSKNIQFEAFHVFKLFVANPEKSEEVIEILRRNKSKLISYLSAFHTDRKNDEQFNDERAFVIKQIERL
notes: pET21a, between the N-terminal T7 tag and the C-terminal 6xHis tag; not shown: His6, C-terminal, kept
For the molecule B1, the Kd was found to be 620 nM in experiment [1] and 490 nM in experiment [2].
